For one substance, Binding to DCs (MFI ratio), BiP, mix of HSP70/BiP-binding peptides + BiP and Binding to DCs (MFI ratio), BiP, Aβ16-22/Aβ25-35 + BiP results are on record in patent publication US20100015126A1, “Methods of Binding of Cross-Beta Structures By Chaperones” (priority 2006, published 2010).

What all share (assay): cell-based or functional assay
Experiment [1] concerns the target synthetic peptide 6BB9.
The target in experiment [2] is synthetic peptide 6BB11.
Experiment [3] deals with synthetic peptide 6BB13.
For experiment [4], the target named is synthetic human Aβ25-35 (6BB6) (human).
Experiment [5] addresses synthetic human Aβ16-22 (6BB12) (human).
Experiment [6] deals with synthetic peptide 6BB10.

Sequence of recombinant human BiP with C-terminal linker, FLAG-tag and His-tag (BiP-FLAG-His), P11021 19-654 (P11021 other isoform, or with tags, fused parts or gaps): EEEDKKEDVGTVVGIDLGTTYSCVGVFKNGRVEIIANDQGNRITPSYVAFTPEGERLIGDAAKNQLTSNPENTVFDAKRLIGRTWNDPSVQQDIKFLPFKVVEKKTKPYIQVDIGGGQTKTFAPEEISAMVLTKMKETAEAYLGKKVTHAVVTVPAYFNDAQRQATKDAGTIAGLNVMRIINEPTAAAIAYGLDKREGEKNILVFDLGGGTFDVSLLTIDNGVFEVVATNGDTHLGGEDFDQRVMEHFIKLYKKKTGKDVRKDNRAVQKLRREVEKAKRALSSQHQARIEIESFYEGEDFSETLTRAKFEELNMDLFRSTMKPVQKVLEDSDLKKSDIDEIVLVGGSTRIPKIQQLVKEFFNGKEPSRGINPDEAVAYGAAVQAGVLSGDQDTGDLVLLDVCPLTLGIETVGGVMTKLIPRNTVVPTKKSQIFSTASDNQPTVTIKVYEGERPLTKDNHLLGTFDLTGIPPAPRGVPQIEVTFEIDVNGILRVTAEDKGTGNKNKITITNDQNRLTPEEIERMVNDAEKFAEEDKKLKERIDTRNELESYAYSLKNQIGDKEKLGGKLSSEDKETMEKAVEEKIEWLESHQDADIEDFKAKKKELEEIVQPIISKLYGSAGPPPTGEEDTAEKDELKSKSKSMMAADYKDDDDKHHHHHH

For the substance “recombinant human BiP with C-terminal linker, FLAG-tag and His-tag (BiP-FLAG-His), P11021 19-654”, the Binding to DCs (MFI ratio), BiP, mix of HSP70/BiP-binding peptides + BiP in experiment [1], in experiment [2], in experiment [3] and in experiment [6] was 1.8 MFI ratio in each case. The Binding to DCs (MFI ratio), BiP, Aβ16-22/Aβ25-35 + BiP in experiment [4] and in experiment [5] was 261 MFI ratio each time.
